Laboratory results as given in US20230331872A1 (CYTOIMMUNE THERAPEUTICS, published 2023).

T1: Recombinant Human NKG2D, amino acid Phe78-Val216 (Accession #P26718) (Biolegends, #781908) (human, UniProt P26718 78-216)
T1 construct: range 78-216; Bought reagent; also called NKG2D-fusion protein; CD314
T1 sequence (looked up): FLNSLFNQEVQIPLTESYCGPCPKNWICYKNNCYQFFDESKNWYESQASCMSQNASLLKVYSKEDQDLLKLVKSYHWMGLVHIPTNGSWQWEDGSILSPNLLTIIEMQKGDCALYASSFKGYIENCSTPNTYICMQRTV


Molecular target: T1, Recombinant Human NKG2D, amino acid …
Assay: home developed BiKE detection ELISA with NKG2D-fusion protein coated plate, 72 h serum-free NK cell supernatant
Protocol: An unique ELISA assay was developed for detecting the concentration of full human Source Scfv-anti NKG2D and GPRCSD. Firstly, the Nunc MaxiSorp™ flat-bottom plate (Invitrogen™, 44-2404-21) was coated with 100 ng/well of Recombinant Human NKG2D, amino acid Phe78-Va1216 (Accession #P26718) (Biolegends, #781908) dissolved in 100 μl of DPBS (Gibco, 14190) at 4 degree overnight. After washing with 1x DPBS buffer with final 0.05% Tween 20 and blocking with 1% BSA in 1x DPBS buffer with final 0.05% Tween 20, 100 μl of samples and standard in blocking buffer were added to each well. The standard used in this assay was a human anti human NKG2D antibody, CD314 (NKG2D)-PE, human, Cat: 130-111-645, recombinant human IgG1, Miltenyi Biotec GmbH (0.25 mg/ml). For detection, a Biotinylated Goat anti-Human IgG (H+L) Cross-Adsorbed Secondary Antibody and HRP-Conjugated Streptavidin (Thermo Scientific™, N100), as well as 1-Step™ Ultra TMB-ELISA Substrate Solution, (Bio-Rad #34029). Stop buffer used was 1 M H₃PO₄.
0.5-1×10⁶ transduced NK cells (FIG. 39) were seeded and cultured in serum free media for 72 hours. Supernatant was subsequently collected, centrifuged, and immediately added to IL-15 pre-coated ELISA plate (R&D Systems S1500) and home developed BiKE detection ELISA with NKG2D-fusion protein coated plate. […] Data present here was as average concentration from four independent donors as mean±SD.

Row | binding result | Binder
1 | binds | GPRC5D-NKG2D BiKE (GN1-BiKE) secreted from NK cells transduced with P61: GN1-BiKE BCMA-CAR--SIL-15-RQR8 (bispecific antibody, human IgG4 S228P, F234A L235A, N297Q, also called IL2 SP BiKE; GPRC5D-NKG2D BiKE-BCMA CAR-SIL-15-RQR8-P61) DIQMTQSPSSLSASVGDRVTITCKASQNVATHVGWYQQKPGKAPKRLIYSASYRYSGVPSRFSGSGSGTEFTLTISNLQPEDFATYYCQQYNRYPYTFGQGTKLEIKGGGGSGGGGSGGGGSQVQLVQSGAEVKKPGASVKVSCKASGYSFTGYTMNWVRQAPGQGLEWMGLINPYNSDTNYAQKLQGRVTMTTDTSTSTAYMELRSLRSDDTAVYYCARVALRVALDYWGQGTLVTVSSPSGQAGAAASESLFVSNHAYQSALTQPASVSGSPGQSITISCSGSSSNIGNNAVNWYQQLPGKAPKLLIYYDDLLPSGVSDRFSGSKSGTSAFLAISGLQSEDEADYYCAAWDDSLNGPVFGGGTKLTVLGGGGSGGGGSGGGGSQVQLVESGGGLVKPGGSLRLSCAASGFTFSSYGMHWVRQAPGKGLEWVAFIRYDGSNKYYADSVKGRFTISRDNSKNTLYLQMNSLRAEDTAVYYCAKDRGLGDGTYFDYWGQGTTVTVSSESKYGPPCPPCPAPEAAGGPSVFLFPPKPKDTLMISRTPEVTCVVVDVSQEDPEVQFNWYVDGVEVHNAKTKPREEQFQSTYRVVSVLTVLHQDWLNGKEYKCKVSNKGLPSSIEKTISKAKGQPREPQVYTLPPSQEEMTKNQVSLTCLVKGFYPSDIAVEWESNGQPENNYKTTPPVLDSDGSFFLYSRLTVDKSRWQEGNVFSCSVMHEALHNHYTQKSLSLSLGK
2 | binds | NKG2D-GPRC5D BiKE (NG2-BiKE) secreted from NK cells transduced with P62: NG2-BiKE BCMA-CAR--SIL-15-RQR8 (bispecific antibody, human IgG4 S228P, F234A L235A, N297Q, also called IL2 SP BiKE; NKG2D-GPRC5D BiKE-BCMA CAR-SIL-15-RQR8-P62) QVQLVESGGGLVKPGGSLRLSCAASGFTFSSYGMHWVRQAPGKGLEWVAFIRYDGSNKYYADSVKGRFTISRDNSKNTLYLQMNSLRAEDTAVYYCAKDRGLGDGTYFDYWGQGTTVTVSSGGGGSGGGGSGGGGSQSALTQPASVSGSPGQSITISCSGSSSNIGNNAVNWYQQLPGKAPKLLIYYDDLLPSGVSDRFSGSKSGTSAFLAISGLQSEDEADYYCAAWDDSLNGPVFGGGTKLTVLPSGQAGAAASESLFVSNHAYQVQLVQSGAEVKKPGASVKVSCKASGYSFTGYTMNWVRQAPGQGLEWMGLINPYNSDTNYAQKLQGRVTMTTDTSTSTAYMELRSLRSDDTAVYYCARVALRVALDYWGQGTLVTVSSGGGGSGGGGSGGGGSDIQMTQSPSSLSASVGDRVTITCKASQNVATHVGWYQQKPGKAPKRLIYSASYRYSGVPSRFSGSGSGTEFTLTISNLQPEDFATYYCQQYNRYPYTFGQGTKLEIKESKYGPPCPPCPAPEAAGGPSVFLFPPKPKDTLMISRTPEVTCVVVDVSQEDPEVQFNWYVDGVEVHNAKTKPREEQFQSTYRVVSVLTVLHQDWLNGKEYKCKVSNKGLPSSIEKTISKAKGQPREPQVYTLPPSQEEMTKNQVSLTCLVKGFYPSDIAVEWESNGQPENNYKTTPPVLDSDGSFFLYSRLTVDKSRWQEGNVFSCSVMHEALHNHYTQKSLSLSLGK
